Common to all, as to assay: cross-linking; BS3 (0.5 or 5 mM), 5 µM protein in solution without liposomes, 20 mM Hepes, 150 mM NaCl, pH 7.4; 30 min room temperature, then 2 min 37°C with BS3; SDS-PAGE, Coomassie; step: monomers to dimer
Assay [1] concerns the target BIN1 N-BAR domain (1-254) D151N (human).
Assay [2] deals with BIN1 N-BAR domain (1-254) K35N (human).
Assay [3] deals with BIN1 N-BAR domain (1-254) R154Q (human).
The target of assay [4] is BIN1 N-BAR domain (1-254), wild type (human).

As to “BIN1 N-BAR domain (1-254) D151N (domain or fragment)”, in assay [1], the stoichiometry N (commonly the number of molecules, sites or subunits per partner or assembly) worked out at 2.

For “BIN1 N-BAR domain (1-254) K35N (domain or fragment)”, the stoichiometry N in assay [2] was 2.

In assay [3], “BIN1 N-BAR domain (1-254) R154Q (domain or fragment)” gave a stoichiometry N of 2.

In assay [4], “BIN1 N-BAR domain (1-254), wild type (domain or fragment)” had a stoichiometry N of 2.

Values taken from paper PMC3995651.
